# From patent publication US6787359B1, “Gene transfer methods” (Takara Shuzo Co., Ltd., priority 1998, dated 2004)
# System: mouse leukemia L1210 cells
# Assay: Gene transfer with PM5neo virus on coated plates, G418-resistant cells by WST-1 absorbance
# Type: cell-based
# Conditions: for Absorbance difference (450 nm-650 nm), G418-resistant cells: Experiment 2
# Method: 50 μl of […] solution of H-271, H-296, C-274, CH-271, CH-296, ColV, human basic fibroblast growth factor (bFGF; Progen), tenascin (Gibco) or epidermal growth factor (EGF; Takara Shuzo), or 50 μl of 2% bovine serum albumin (BSA, Sigma) was added to each well of a 96-well non-treated microplate for cell culture (Falcon). The plate was allowed to stand at 4° C. overnight and then washed twice with phosphate buffered saline (PBS; Roman Kogyo). Alternatively, after the plate was treated as described above, 0.1 ml of 4 mg/ml solution of 1-ethyl-3-dimethylaminopropylcarbodiimide hydrochloride (Sigma) in sterile pure water was dispensed to each well. The reaction was allowed to proceed at 37° C. for 2 hours. The plate was washed extensively with pure water to prepare a carbodiimide-treated plate. These plates were stored at 4° C. until viral infection experiments were conducted.
# 10^4 mouse leukemia L1210 cells (ATCC CCL-219), which had been grown in RPMI 1640 medium (Bio Whittaker) supplemented with 10% FCS, 50 units/ml penicillin and 50 μg/ml streptomycin, and 50 μl of PM5neo virus supernatant (10^4 cfu/ml) were added to the well of the microplate. After the plate was incubated for 24 hours, the medium was changed to the same medium containing G418 (Gibco) at a final concentration of 0.75 mg/ml, and the plate was then incubated for additional 48 hours. G418-resistance cells were assessed according to the method as described in S. Kim et al. [Gene Therapy, 3:1018-1020 (1996)] with a partial modification in which color developed using Premix WST-1 reagent (Takara Shuzo) was measured as absorbance at 450 nm. […] Absorbance at 450 nm and 650 nm was then measured using a microplate reader, and the difference (450 nm-650 nm) was calculated. The value obtained using a plate coated with 2% BSA without carbodiimide treatment was defined as background.
molecule,measurement,setting,value
"EGF: epidermal growth factor (Takara Shuzo) (protein, UniProt P01133 23-1207, looked up, Pro-epidermal growth factor) Pro-epidermal growth factor: PQHWSCPEGTLAGNGNSTCVGPAPFLIFSHGNSIFRIDTEGTNYEQLVVDAGVSVIMDFHYNEKRIYWVDLERQLLQRVFLNGSRQERVCNIEKNVSGMAINWINEEVIWSNQQEGIITVTDMKGNNSHILLSALKYPANVAVDPVERFIFWSSEVAGSLYRADLDGVGVKALLETSEKITAVSLDVLDKRLFWIQYNREGSNSLICSCDYDGGSVHISKHPTQHNLFAMSLFGDRIFYSTWKMKTIWIANKHTGKDMVRINLHSSFVPLGELKVVHPLAQPKAEDDTWEPEQKLCKLRKGNCSSTVCGQDLQSHLCMCAEGYALSRDRKYCEDVNECAFWNHGCTLGCKNTPGSYYCTCPVGFVLLPDGKRCHQLVSCPRNVSECSHDCVLTSEGPLCFCPEGSVLERDGKTCSGCSSPDNGGCSQLCVPLSPVSWECDCFPGYDLQLDEKSCAASGPQPFLLFANSQDIRHMHFDGTDYGTLLSQQMGMVYALDHDPVENKIYFAHTALKWIERANMDGSQRERLIEEGVDVPEGLAVDWIGRRFYWTDRGKSLIGRSDLNGKRSKIITKENISQPRGIAVHPMAKRLFWTDTGINPRIESSSLQGLGRLVIASSDLIWPSGITIDFLTDKLYWCDAKQSVIEMANLDGSKRRRLTQNDVGHPFAVAVFEDYVWFSDWAMPSVMRVNKRTGKDRVRLQGSMLKPSSLVVVHPLAKPGADPCLYQNGGCEHICKKRLGTAWCSCREGFMKASDGKTCLALDGHQLLAGGEVDLKNQVTPLDILSKTRVSEDNITESQHMLVAEIMVSDQDDCAPVGCSMYARCISEGEDATCQCLKGFAGDGKLCSDIDECEMGVPVCPPASSKCINTEGGYVCRCSEGYQGDGIHCLDIDECQLGEHSCGENASCTNTEGGYTCMCAGRLSEPGLICPDSTPPPHLREDDHHYSVRNSDSECPLSHDGYCLHDGVCMYIEALDKYACNCVVGYIGERCQYRDLKWWELRHAGHGQQQKVIVVAVCVVVLVMLLLLSLWGAHYYRTQKLLSKNPKNPYEESSRDVRSRRPADTEDGMSSCPQPWFVVIKEHQDLKNGGQPVAGEDGQAADGSMQPTSWRQEPQLCGMGTEQGCWIPVSSDKGSCPQVMERSFHMPSYGTQTLEGGVEKPHSLLSANPLWQQRALDPPHQMELTQ","Absorbance difference (450 nm-650 nm), G418-resistant cells",plate treated with carbodiimide,0.077 ± 0.038
same,"Absorbance difference (450 nm-650 nm), G418-resistant cells",plate untreated,0.030 ± 0.021
same,Appearance of G418-resistant cells (in words),carbodiimide treatment carried out,increased
